Reference: PMC9757077, “The B. subtilis Rok protein is an atypical H-NS-like protein irresponsive to physico-chemical cues”
Changes are numbered by the printed parent chain.

How the values were obtained:
Rok [1] = molecular target: T1, Rok (Bacillus subtilis 168, UniProt O34857 1-191); assay: TPM; details: Hill n=6.5 ± 0.4; 50 mM KCl; MST: 10 mM Tris-HCl pH 8, 150 mM KCl, 5% glycerol, 0.05% Tween20, 0.08 mg/ml acetylated BSA, RT, 40 nM DNA; TPM: 50 mM KCl; bridging: 50 mM KCl …
T1 sequence: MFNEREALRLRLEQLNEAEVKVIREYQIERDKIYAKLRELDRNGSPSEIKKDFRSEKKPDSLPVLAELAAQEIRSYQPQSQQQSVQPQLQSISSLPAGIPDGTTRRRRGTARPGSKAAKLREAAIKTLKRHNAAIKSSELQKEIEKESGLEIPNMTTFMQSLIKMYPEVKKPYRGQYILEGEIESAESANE

[2] = system: Rok Δ75-96 (Bacillus subtilis 168); assay: TPM; details: Hill n=5.7 ± 0.9; 50 mM KCl; MST: 10 mM Tris-HCl pH 8, 150 mM KCl, 5% glycerol, 0.05% Tween20, 0.08 mg/ml acetylated BSA, RT, 40 nM DNA; TPM: 50 mM KCl; bridging: 50 mM KCl …
[3] = molecular target: Rok with a C-terminal His-tag (Rok-6xHis) (B. subtilis 168) (UniProt O34857)
Rok [4] = molecular target: T1, Rok; assay: MST; 10 mM MgCl2; MST: 10 mM Tris-HCl pH 8, 150 mM KCl, 5% glycerol, 0.05% Tween20, 0.08 mg/ml acetylated BSA, RT, 40 nM DNA; TPM: 50 mM KCl; bridging: 50 mM KCl, 25 C; details: protein: recombinant; chain copies: 2; label: 5'-Cy5 top strand; blunt
Rok [5] = molecular target: T1, Rok; assay: MST; no MgCl2; McGhee-von Hippel n=30 bp; MST: 10 mM Tris-HCl pH 8, 150 mM KCl, 5% glycerol, 0.05% Tween20, 0.08 mg/ml acetylated BSA, RT, 40 nM DNA; TPM: 50 mM KCl; bridging: 50 mM KCl, 25 C; details: protein: recombinant; chain copies: 2; label: 5'-Cy5 top strand; blunt
Rok [6] = molecular target: T1, Rok; assay: MST; up to 35 mM MgCl2; MST: 10 mM Tris-HCl pH 8, 150 mM KCl, 5% glycerol, 0.05% Tween20, 0.08 mg/ml acetylated BSA, RT, 40 nM DNA; TPM: 50 mM KCl; bridging: 50 mM KCl, 25 C; details: protein: recombinant; chain copies: 2; label: 5'-Cy5 top strand; blunt
Rok [7] = molecular target: T1, Rok; assay: bridging pull-down; 0.27 uM Rok, bait N1; minimal bridged length; MST: 10 mM Tris-HCl pH 8, 150 mM KCl, 5% glycerol, 0.05% Tween20, 0.08 mg/ml acetylated BSA, RT, 40 nM DNA; TPM: 50 mM KCl; bridging: 50 mM KCl, 25 C; details: protein: recombinant; chain copies: 2; label: 32P; blunt

In the case of 685 bp AT-rich (32% GC) DNA, the K half (Rok [1]) is reported as 6.1 nM and the K half [2] is reported as 8.8 nM.

small Rok (sRok) (natural protein) showed a DNA recovery (%) in the DNA bridging assay with different Rok:sRok ratios (total protein 0.5 uM, 50 mM KCl + 1 mM MgCl2, 25°C); value at 20% sRok; Rok here is the untagged protein [3] of 40%.

B1: MST aspecific 78 bp (dsDNA)
DNA 1: CGGCGCAAATTCGTGACCAGTTGCATCAGCTGCGTGAGCTGTTTATCGCAGCATCGTAACAGGATAGTGAAGAAGACT
DNA 2: AGTCTTCTTCACTATCCTGTTACGATGCTGCGATAAACAGCTCACGCAGCTGATGCAACTGGTCACGAATTTGCGCCG
B1 gave a Kd (Rok [4]) of 34.6 ± 8 µM and a Kd (Rok [5]) of 79.4 ± 20 µM.

B2: MST specific 78 bp (TACTA) (dsDNA)
DNA 1: B1 DNA 1 with G32A, G34T, T35A
DNA 2: B1 DNA 2 with A44T, C45A, C47T
For B2, the Kd (Rok [6]) was roughly 100 µM.

B3: 100 bp prey (dsDNA)
DNA 1: GATATATGGACTCTTAGTGGCAAATATATAATGTATAAGTTCTGGAGTAGTATGGTAATAACTATTTTATTTTCGATAGCTTGAATGTTTATTTTCCCAG
DNA 2: CTGGGAAAATAAACATTCAAGCTATCGAAAATAAAATAGTTATTACCATACTACTCCAGAACTTATACATTATATATTTGCCACTAAGAGTCCATATATC
B3: binds (Rok [7]).
